Measured values from patent US20220380407A1.

What was measured:
Test in all cases: cell-based or functional assay
[1] = molecular target: Factor Xa (#1063-SE-010, R&D Systems) (UniProt P00742)
[2] = molecular target: activated hepsin (#4776-SE-010, R&D Systems) (UniProt P05981)
[3] = molecular target: human TMPRSS2 (human) (UniProt O15393)
[4] = molecular target: matriptase (#3946-SE-010, R&D Systems) (UniProt Q9Y5Y6)
[5] = molecular target: recombinant N-terminal His-tag HGFA serine protease domain (UniProt Q04756)
Chain of recombinant N-terminal His-tag HGFA serine protease domain (Q04756 373-655, form in doubt): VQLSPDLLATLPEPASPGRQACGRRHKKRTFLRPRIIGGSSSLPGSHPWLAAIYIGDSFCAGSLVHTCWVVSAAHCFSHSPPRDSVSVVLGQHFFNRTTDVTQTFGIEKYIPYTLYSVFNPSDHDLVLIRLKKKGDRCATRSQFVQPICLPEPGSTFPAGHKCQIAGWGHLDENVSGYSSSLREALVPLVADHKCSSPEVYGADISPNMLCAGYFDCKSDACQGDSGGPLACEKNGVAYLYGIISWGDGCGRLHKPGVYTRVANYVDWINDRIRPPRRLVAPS

[6] = molecular target: recombinant thrombin (#1473-SE-010, R&D Systems) (UniProt P00734)
[7] = molecular target: KLK5 (#1108-SE-010, R&D Systems) (UniProt Q9Y337)
Chain of KLK5 (#1108-SE-010, R&D Systems) (Q9Y337 23-293 limits assumed): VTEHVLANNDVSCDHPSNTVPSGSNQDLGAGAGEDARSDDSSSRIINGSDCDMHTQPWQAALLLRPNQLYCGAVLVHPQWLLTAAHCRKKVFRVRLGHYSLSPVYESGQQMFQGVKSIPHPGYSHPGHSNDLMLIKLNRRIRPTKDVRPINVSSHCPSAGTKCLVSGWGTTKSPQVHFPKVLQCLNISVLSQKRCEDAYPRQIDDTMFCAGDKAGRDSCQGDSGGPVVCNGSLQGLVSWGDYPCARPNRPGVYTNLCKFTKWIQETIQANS

Chain of activated hepsin (#4776-SE-010, R&D Systems) (P05981 45-417 limits assumed): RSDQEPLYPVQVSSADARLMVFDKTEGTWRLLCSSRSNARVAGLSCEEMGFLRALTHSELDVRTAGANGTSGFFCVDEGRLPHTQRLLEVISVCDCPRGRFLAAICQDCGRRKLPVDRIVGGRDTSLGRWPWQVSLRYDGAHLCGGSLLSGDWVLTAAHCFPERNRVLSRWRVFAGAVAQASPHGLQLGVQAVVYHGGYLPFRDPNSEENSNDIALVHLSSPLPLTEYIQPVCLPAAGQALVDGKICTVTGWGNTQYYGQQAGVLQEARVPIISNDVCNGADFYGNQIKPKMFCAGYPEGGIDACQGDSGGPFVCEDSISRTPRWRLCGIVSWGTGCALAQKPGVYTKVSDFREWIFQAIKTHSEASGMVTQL
Chain of matriptase (#3946-SE-010, R&D Systems) (Q9Y5Y6 615-855 limits assumed): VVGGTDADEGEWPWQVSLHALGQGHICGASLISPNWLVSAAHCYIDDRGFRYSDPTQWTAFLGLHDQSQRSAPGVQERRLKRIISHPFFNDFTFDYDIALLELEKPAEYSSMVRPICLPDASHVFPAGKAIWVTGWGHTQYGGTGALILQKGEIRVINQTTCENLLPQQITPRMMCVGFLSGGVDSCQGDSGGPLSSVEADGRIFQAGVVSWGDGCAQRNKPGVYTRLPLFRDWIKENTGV
Chain of Factor Xa (#1063-SE-010, R&D Systems) (P00742 41-488 limits assumed): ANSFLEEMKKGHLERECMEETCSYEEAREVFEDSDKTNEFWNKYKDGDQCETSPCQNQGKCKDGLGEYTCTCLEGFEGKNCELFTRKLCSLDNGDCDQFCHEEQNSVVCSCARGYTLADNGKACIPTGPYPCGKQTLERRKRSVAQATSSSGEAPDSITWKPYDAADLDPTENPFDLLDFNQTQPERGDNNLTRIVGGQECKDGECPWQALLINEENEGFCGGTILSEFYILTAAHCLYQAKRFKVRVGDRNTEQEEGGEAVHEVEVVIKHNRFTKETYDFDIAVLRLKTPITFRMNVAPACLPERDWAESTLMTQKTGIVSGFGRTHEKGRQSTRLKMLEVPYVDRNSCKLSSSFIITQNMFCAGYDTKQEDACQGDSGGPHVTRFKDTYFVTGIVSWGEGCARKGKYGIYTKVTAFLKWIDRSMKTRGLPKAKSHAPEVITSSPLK
Chain of human TMPRSS2 (human) (O15393 whole entry): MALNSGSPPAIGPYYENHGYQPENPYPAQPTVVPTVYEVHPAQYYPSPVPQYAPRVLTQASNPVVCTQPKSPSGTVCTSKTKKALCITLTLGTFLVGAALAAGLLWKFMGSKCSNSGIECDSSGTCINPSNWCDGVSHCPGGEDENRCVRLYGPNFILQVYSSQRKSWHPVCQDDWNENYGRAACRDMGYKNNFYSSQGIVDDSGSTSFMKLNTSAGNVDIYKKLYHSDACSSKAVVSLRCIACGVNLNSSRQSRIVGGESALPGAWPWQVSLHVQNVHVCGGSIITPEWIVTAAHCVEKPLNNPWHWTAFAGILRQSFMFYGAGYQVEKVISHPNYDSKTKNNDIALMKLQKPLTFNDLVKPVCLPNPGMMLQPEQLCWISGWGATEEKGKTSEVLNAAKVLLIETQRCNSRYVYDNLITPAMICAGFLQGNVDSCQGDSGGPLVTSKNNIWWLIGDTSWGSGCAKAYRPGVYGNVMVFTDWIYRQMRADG

Row | Factor Xa* (IC50 nM) [1] [nM] | Hepsin (IC50 nM) [2] [nM] | Hepsin IC50 [2] [nM] | Calu-3 EC50 [3] [nM] | Matriptase (IC50 nM) [4] [nM] | Matriptase IC50 [4] [nM] | HGFA (IC50 nM) [5] [nM] | HGFA IC50 [5] [nM] | Thrombin* (IC50 nM) [6] [nM] | KLK5 IC50 [7] [nM] | Substance
1 | 8810 | 102 | 20 | 565 | 80.2 | 14 | > 20000 | > 20000 | > 20000 |  | Cyclo(allylLY)R-kbt, VD4051 (peptide)
2 |  |  |  |  |  |  |  |  |  | > 20000 | Leupeptin (peptide)
